One may read the koff as the first-order rate constant of dissociation.

This passage reports koff results from article PMC9122904, “Insights into the client protein release mechanism of the ATP-independent chaperone Spy” (Nature Communications, 2022).

Experiment in all cases: BLI; Octet RED96; client biotinylated and loaded on streptavidin sensors; Spy or Spy variant in solution at 0.25, 0.5, 1, 1.5 and 2 μM; 40 mM HEPES, 150 mM NaCl, pH 7.5; Kd calculated as koff/kon
Settings in all cases: both partners purified

The target in one experiment is T1, Spy D26K R43D (UniProt P77754 24-161, D26K | R43D).
T1 construct: source: E. coli BL21 (DE3), purified (Ni-NTA, cation exchange, SEC); not shown: His6, N-terminal, cleaved; SUMO, N-terminal, cleaved
T1 sequence (looked up): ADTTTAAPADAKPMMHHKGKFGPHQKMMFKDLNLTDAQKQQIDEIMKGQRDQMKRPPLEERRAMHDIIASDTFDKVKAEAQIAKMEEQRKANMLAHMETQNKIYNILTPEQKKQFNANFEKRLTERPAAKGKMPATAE
The gist of the method: (§1)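 Association was recorded with an Octet RED96 as streptavidin sensors carrying client proteins, biotinylated with EZ-link NHS-biotin at a 1:1 molar ratio, sat in 40 mM HEPES, 150 mM NaCl, pH 7.5 with 0.25 to 2 μM of the analyte protein (0.25, 0.5, 1, 1.5 and 2 μM). Dissociation followed after transfer to analyte-free buffer. Both wavelength-shift phases were fitted in SigmaPlot 12.0 to obtain koff and the observed association rate, whose dependence on analyte concentration yielded kon, with Kd defined as koff divided by kon.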

For the next experiment, the target named is T2, Spy H65D (UniProt P77754 24-161, H65D).
T2 construct: source: E. coli BL21 (DE3), purified (Ni-NTA, cation exchange, SEC); not shown: His6, N-terminal, cleaved; SUMO, N-terminal, cleaved
T2 sequence (looked up): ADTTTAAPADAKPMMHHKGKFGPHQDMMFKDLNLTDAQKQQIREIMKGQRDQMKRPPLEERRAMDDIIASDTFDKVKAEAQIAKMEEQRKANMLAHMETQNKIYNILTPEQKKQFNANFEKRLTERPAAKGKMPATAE
The gist of the method:
as §1

A further experiment has as its target T3, Spy D26K H96D (UniProt P77754 24-161, D26K | H96D).
T3 construct: source: E. coli BL21 (DE3), purified (Ni-NTA, cation exchange, SEC); not shown: His6, N-terminal, cleaved; SUMO, N-terminal, cleaved
T3 sequence (looked up): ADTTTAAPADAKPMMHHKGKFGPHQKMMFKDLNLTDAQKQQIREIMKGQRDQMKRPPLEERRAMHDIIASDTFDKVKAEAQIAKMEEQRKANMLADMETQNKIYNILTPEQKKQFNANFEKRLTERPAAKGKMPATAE
An outline of the steps: as §1

In a further experiment the target is T4, Spy_(D26K K54D R55D) (UniProt P77754 24-161, D26K | K54D | R55D).
T4 construct: source: E. coli BL21 (DE3), purified (Ni-NTA, cation exchange, SEC); not shown: His6, N-terminal, cleaved; SUMO, N-terminal, cleaved
T4 sequence (looked up): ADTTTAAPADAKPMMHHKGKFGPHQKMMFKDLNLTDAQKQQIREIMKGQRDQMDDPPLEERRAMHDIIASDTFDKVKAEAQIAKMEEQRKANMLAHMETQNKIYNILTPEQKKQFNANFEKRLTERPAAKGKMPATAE
An outline of the steps:
as §1

For another experiment, the target named is T5, Spy D26K H65D (UniProt P77754 24-161, D26K | H65D).
T5 construct: source: E. coli BL21 (DE3), purified (Ni-NTA, cation exchange, SEC); not shown: His6, N-terminal, cleaved; SUMO, N-terminal, cleaved
T5 sequence (looked up): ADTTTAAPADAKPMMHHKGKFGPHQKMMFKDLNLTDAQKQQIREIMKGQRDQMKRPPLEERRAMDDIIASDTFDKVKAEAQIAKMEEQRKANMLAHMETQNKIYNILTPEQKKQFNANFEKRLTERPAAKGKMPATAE
An outline of the steps: as §1

A further experiment has as its target T6, Spy_(H96D) (UniProt P77754 24-161, H96D).
T6 construct: source: E. coli BL21 (DE3), purified (Ni-NTA, cation exchange, SEC); not shown: His6, N-terminal, cleaved; SUMO, N-terminal, cleaved
T6 sequence (looked up): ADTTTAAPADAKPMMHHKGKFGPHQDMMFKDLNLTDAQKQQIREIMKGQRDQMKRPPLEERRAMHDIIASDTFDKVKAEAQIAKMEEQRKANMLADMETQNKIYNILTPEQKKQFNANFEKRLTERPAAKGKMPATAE
An outline of the steps:
as §1

A further experiment concerns the target T7, Spy D26K R50D (UniProt P77754 24-161, D26K | R50D).
T7 construct: source: E. coli BL21 (DE3), purified (Ni-NTA, cation exchange, SEC); not shown: His6, N-terminal, cleaved; SUMO, N-terminal, cleaved
T7 sequence (looked up): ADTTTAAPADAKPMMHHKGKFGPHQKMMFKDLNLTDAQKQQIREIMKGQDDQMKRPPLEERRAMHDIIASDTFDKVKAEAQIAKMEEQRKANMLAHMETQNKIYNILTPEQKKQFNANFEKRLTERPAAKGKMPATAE
An outline of the steps: as §1

A further experiment addresses T8, Spy_(R61D R62D) (UniProt P77754 24-161, R61D | R62D).
T8 construct: source: E. coli BL21 (DE3), purified (Ni-NTA, cation exchange, SEC); not shown: His6, N-terminal, cleaved; SUMO, N-terminal, cleaved
T8 sequence (looked up): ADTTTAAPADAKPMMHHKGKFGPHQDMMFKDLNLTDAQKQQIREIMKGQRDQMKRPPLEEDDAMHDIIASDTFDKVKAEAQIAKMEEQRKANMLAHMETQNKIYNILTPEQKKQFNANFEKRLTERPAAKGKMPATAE
The gist of the method: as §1

B1: Im7 H40W L53A I54A (natural protein)
chain: MELKNSISDYTEAEFVQLLKEIEKENVAATDDVLDVLLEWFVKITEHPDGTDAAYYPSDNRDDSPEGIVKEIKEWRAANGKPGFKQG
modifications: biotin (EZ-link NHS-biotin, 1:1 molar ratio of biotin to protein)
notes: Im7 (colicin E7 immunity protein) with H40W L53A I54A; Spy was made with an N-terminal His6-SUMO tag that was cleaved; also called Im7AAW; partially folded client; source: purified by a similar procedure to Spy
In the case of B1, the koff with Spy D26K R43D is 0.202 s⁻¹; with Spy H65D it was 0.427 s⁻¹; with Spy D26K H96D, 0.172 s⁻¹; with Spy_(D26K K54D R55D) it was 0.425 s⁻¹; with Spy D26K H65D, 0.284 s⁻¹; with Spy_(H96D), 0.42 s⁻¹. The koff with Spy D26K R50D was 0.147 s⁻¹; with Spy_(R61D R62D) it was 0.0727 s⁻¹.
